The values that follow come from US20240360219A1.

In experiment [1] the target is human TGFβ3 (human) (UniProt P10600).
Experiment [2] has as its target human TGFβ1 (human) (UniProt P01137).
UniProt P01137, sequence (P01137 279-390 limits assumed): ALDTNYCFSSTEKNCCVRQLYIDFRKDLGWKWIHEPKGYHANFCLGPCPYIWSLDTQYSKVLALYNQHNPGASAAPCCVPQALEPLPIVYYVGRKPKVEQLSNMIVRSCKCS

UniProt P10600, sequence (P10600 301-412 limits assumed): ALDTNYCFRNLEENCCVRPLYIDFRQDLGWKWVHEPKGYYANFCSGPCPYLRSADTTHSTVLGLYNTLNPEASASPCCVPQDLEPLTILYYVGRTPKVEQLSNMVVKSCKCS

Consider M7824, for which the IC50, inhibition of TGFβ3-induced Smad2 reporter activity in experiment [1] was determined as 1.95 nM. For the same substance, the IC50, inhibition of TGFβ1-induced Smad2 reporter activity in experiment [2] is 0.91 nM.
